In a protein production outcome set (Wang et al. 2014):

Assay: label from the status in PepcDB records

Sequence	protein production
MSQVASLLIALPLISAFFVPVLKQIKKSLIFPYLTLITLLQTGIAGWVFYEVYTTGKPILIYAGGWRPPVGINLYIGPFAALFILIIAIVSFLTSLFSMRMVKVEPIDKYAMLFLLLMLGATGMIATGDIFNLFVFMEITAITAYALTAYNKTGEAAEASMKYMILGGIGSSFFLIGVALIYGVTGTLNMAQLAEFASAGKIMPVVAQVGLSLIIFGLAVEAELFPLNAWAPDAYQAAPHPITVMFSAFVVKAGLYAMARILYLLQKVNGWDSVLKLLLIMATLTVIFAELSALRQKDVKRMIAYSSIGQVGLIALAFSLGTQAGVDAGVFHMLNHAIVKTMMFLGVGYVGVMVGGTRIEDFRGLGKRMPLTALSLSVGAISTVGVPLFNVFWSKFRIIVATIQAGFVWPAVLVLFASVVEAVYYFRLLHVMWFAGEGERIKEGWIVVFLLLLALIIVGIGIYPTPVWEIVKRAGSDIFAVKVYINNVPLLGVVQ	failed
MSQYVVCALYKFVELNNYQELREPLLALMEKHHIRGTLLLAGEGINGTVASDRAGIDTLLEWLNTEPRLTGTVYKESYSETQPFNRTKVKLKKEIVTLGVEGIDPRHVVGTYVKPQDWNDLIADPEVFVVDTRNDYEIEIGTFKGAVNPNTETFREFPDYVKENMDPAKHKKVAMFCTGGIRCEKSTAYMKEQGFEEVYHLEGGILKYLEEVPQEESMWEGDCYVFDGRVAVNHQLEKADYDLCNACRLPITDEDKQSELFEQGVSCPKCHGKHSEEQVERFREREKQVSLANQRGEQHVGGESAKQRAQRREAKLAKKAAQRKQA	failed
MSRAGRIAAETRAAWYAFVRRRTAVFFTFFFPVILILIFGALVGTDPTGGGLFAEPAGYYVAGYLAVVVLFTPLSRVGSEVARHRSGNRFEKLATTPLSRAEWLFAQTLVNVVVIGLASLLILGLVLLVTDAAFTFSLLVVPYVALGVALFCGLGAILGRIADSQDGAIAASNGIAIPLLFLSETFVPPALLPEWFVPLLDLSPLTYFARGLRAATYEPVANTGGTGLVGSDPYLNLVVLAAGAVVFFAAGAYALPRTD	failed
MSRDDNGWSKLYPDLLRSIFESLSCLDFHRAGTVCSNWYAVSRSCPLYPWRIVFRGKNSVLFDPIQDKIYTKNLLGIDLSKIHCLASYGNWILIVDPRLDFYLLNVFTRETINLPSLESSLRGDRPFRFIRNDDESGYFLELYGTKFLLTWNDFRFEKTAILWVNGRNGDYVVAWAIKQFYIFSYKKIGNDDDDKRWSITCTQCEDMAYKDNKLYVYTFDHYINILDFSGNSPKEPMEENPYLSHPFSFVDAIYKLRLAVTREGKVLIVLSLVGLDKKICIYKLNLKIGDWEIVESLGDEMLIFGHGVTIRAPDKDISGGGLKSDSICFLYDDYLSDHYLTMKRQPICGVFDLATSTITWHTRLEDLSSKICWFVPGCA	failed
MSRFLTFFLIVFSYALQAQVASLTNAILYRNDGNLIKAKEEIDKAVVNEKTIGMPKTWFYTGLIYKDLYQATPTDLAALTTSTAAFKKVFELEKPAGEFSKKSQEALEQIWAISINNGVNLYQLENYRQAITDFERAQGIKPGDTTAYVYAFYAANELKDQALLEKYSSALVRLNYASEAVYYIDIESLMDKNLLDSAYTVSKKALTNYPSDIALKTQQTELMVKMNKTQEAIENLKVLSTKNPKDVQLLINIGSQYTNLNDEPHAAEYYQKALAIDSVNFNANYNMAVFSLRKANEISKQIVVSDNNLKKSFKAIPTVATDPLRQNLQKELAVSTKYYNRAVLGAKDEEAKKNVKTLQDNITSFEDQFLK	failed
MSRKLQDSAFRLLKKAAYDIDHDRYKKAFENLDKVEKIEKEVNNPEISYHLLFFKGFAKYRIDELEESLALFGKALEISWDLFSKEPEKEDYRSFMRDTIGSIGDILLKLEDPVKAREYISPMKGIFEKTVLGFEKLLESDPENPEYLEDFLKTIEHIGLCFEAGELTGDAVPLFDKKFDLIEKLLKSETEISEHLSSLDDSLMNFGRMCEGEEYLEEEYIEEAKRVYDRAIEIYGKVLDKDPENSETKVYLSYIYRYMAGMYSDQENLVKAEECYKEALGLLESEIENEPENIPVSENIEVSENISVPKNILFSMAIADMYKDSGLIFSDTEDTTKARDYYTKARETFRGLINKYPDLLEADKNLASSLDELAELFSEIGDFESAEMCYKDELNIYENLLQKEPENPENPEYSLKLSDIYRELGDLFAEEEEIEKARAYYDKEIEIYENLHPAEADKLMLEANKADTWNQIGRLYAEEEPETAVQYHERALPIFLEAFESDPTSEFFHEELLETLTVLGTLFKENREFEKAIRMYERVLEVQKQLLEIMPPASCHDHDHDHNLNHSHNLNHSHNLNHTHDLNHDHDLNHDLDHDHEMDHDHALEHCHDLDIETTYFELGVLHSEIGDEEKASVYHRQALERFEQIIAEQSGNPEILILTSGKAFFSGMSLLEKLESENKDSSIARKYYELALRTIEKLYEAYPMNLKLQEMLASFAEQIGDIYRDADKLEETIQEYEYAYRSLKILYENDPENPKHLHHMLGALNNIGIGYSVTDQQEKGKECFEKALALNESLAKSNPEDLNPLRRNFLLFSNYANLLEELGDSKTAKEYRKKAEELDAKLTEEDPEWTSLVEEL	failed
MSRKPLIAGNWKMNLNHYEAIALVQKIAFSLPDKYYDRVDVAVIPPFTDLRSVQTLVDGDKLRLTYGAQDLSPHDSGAYTGDVSGAFLAKLGCSYVVVGHSERRTYHNEDDALVAAKAATALKHGLTPIVCIGEHLDVREAGNHVAHNIEQLRGSLAGLLAEQIGSVVIAYEPVWAIGTGRVASAADAQEVCAAIRKELASLASPRIADTVRVLYGGSVNAKNVGDIVAQDDVDGGLVGGASLDGEHFATLAAIAAGGPLP	not failed
MSRKSAPSSTAAPAPKLAADRIRATARELFYREGIRAVGVDAIVSAAGVTKPSLYRSFSSKDELAASYLRDYETEFWSRFDAGAQRHPDDPRAQLRLYLESLAERAANAGPYRGCGLSNAAVEYPDPDHPARLVAEAHKRELRRRLIDMARRMGAREPEVLGDGLMLLIEGAFISGQLFHGDGPARHVARLADRLIEASL	failed
MSRLSAAVVAIDGPAGTGKSSVSRRLARELGARFLDTGAMYRIVTLAVLRAGADPSDIAAVETIASTVQMSLGYDPDGDSCYLAGEDVSVEIRGDAVTRAVSAVSSVPAVRTRLVELQRTMAEGPGSIVVEGRDIGTVVFPDAPVKIFLTASAETRARRRNAQNVAAGLADDYDGVLADVRRRDHLDSTRAVSPLQAAGDAVIVDTSDMTEAEVVAHLLELVTRRSEAVR	not failed
MSRMMPARVRSEGIALYAKGFLNDPIETDFKLTAEIDGEEVSYDLDGAQDSCTCAVFQQNHRYCKHIAAIEEYLKNQDKGSQETKDKEIKGAERALFGENVAFLDAVNGETQLNFNTDQYSIEVQIEDNSQLYDYFSMDYFLYFDLKLRSKNLGRSYVIKDIPYFLRALKNYSQYSLGSLHYIDLFFDNFDEASQEFLTFLLKIDSKSDEALTKSLYIKNGRYLNIPFLFLEEAMDLVSALENYQLQITGRTVNYFTFIALDNDSEIFKFKVESQQDYIELKLYSEDYHNFYDYSLLYANNVFYKLNQEQRRLLLVLDKQFAKKSQIKFSYADKDKLAQALQQLSTLGEIEAPDHFVVRPFDAKFTFDLLEDQTISLAMTFDYGSFSIDSFHDLETLEFSRDLRKEQKIFALMERLQFAKAFNSSLNIPENLSEHFFLKILPAFQKLGQIELSPTLRNMRMDEVPEIHIDSQGGLLDISFDIPQVEDGEFANVIAKLQENAEFYISESGKFYHFNEKFDRLKAALNELDDQFVIQGSSLHVNINRSFQISKIFENIGGASFSEKFKSLYQHLTHPEEFPYEKPEHIKASLRSYQETGVRWMSMLSHYNLGGILADDMGLGKTVQAITFILSNLKKDESVLITAPASLTYNWASEFEKFTDEIDFAVIDGTKAERSKEIQEKHQIYITSYGSFLKDFEDYQDKKLNYLLLDEAQVVKNYSSKTNKSLSALNVEHTFALSGTPLENRIEEIWAIFQVVMPGFLPKREKFNKMEPSVISRLIQPFIMRRKKEDVLEELPEKMEITVYNQLADDQKVIYLAQLELMQKQVLEMDSAALSRSRIEILAGITRLRQICNTPALFMDDYKGSSGKLERLRELLAQIKDSGHRPLIFSQFTKVFPHIEKLMEEQEMTAYKLTGSTPIKDRLSMVQAFNAGSRDAFLVSLKAGGVGLNLTSADVVILVDLWWNPAVEEQAIARAHRMGQKNTVEVIRLITKGTIEEKIMEIQERKKDLIANVLEGDTVDKVLSEAEIREILGV	failed
MSRNEVLLNGDINFKEVRCVGDNGEVYGIISSKEALHIAQNLGLDLVLISASAKPPVCKVMDYNKFRYQNEKKIKEAKKKQKQIEIKEIKLSTQIAQNDINYKVKHAREFIESNKHVKFKVVLKGRESQNSKAGLDVLFRVQTMMQDLANPEKEPKTEGRFVSWMFVPKAKEAPKNEKKTKENNPPFNRINLMKGENHAKNED	failed
MSRNKGVQYLSSSEHSLKDYLPILSMAGLILIVQVLALLLSMPMEINDMQAFEDPTQVSNSIYYIVMILVFTLFVLIAIKKNMKWIISLLIYLAIVSTLYYVFFALFTLIPALAGLENIASLLLSIGLTVLLYKYPEWYVIDLLGVCIAGGVSALIGISLSIIPVVVLLILLAVYDAISVYKTKHMIAMAEGVMDLKLPILFIIPKHLNYSFITEGFKEGEKREAFFMGLGDAVMPTLLVVSANVFLENGGLSYPVLGAMLGTLVGHIFLSILVMRGKPQAGLPFLNSGAIIGFFIGVLFSGASIL	failed
MSRPPTTPSAPQTADLVRPARRGDLDGLLALARAADAGMTNLPADRAALDDRLAASEQALIDPETRNAGAAVYLVLERQGRVIGAACVFARIGVAQPFYSYRVTRLTQLSPDLGKRVEMSVLTLVNDLTDQAEVGGLFVAPDAR	failed
MSRRGLLLMGQCMPCIKQNASKIRIRRMELDKNLNMYFKKDEFYFAHDPQKVCKTGDVVLIRELPERLTRLITHNVEKVVYPLGDITDPLTGKKVVVGNYREDIEMANQLFGKSEKAFDYEKAPPRGRLEGTKDFTHGETYIKYHEDGKDQPFAV	failed
MSRRNGGLFPTDLQTIARDIGSLLLMEAGLMTITAAVALGFQEFYAAFGFFTAAGMTAGVGGLANRGFSDAPAPQMKHGMVIAAGGWLLVAAFGSLPFLLTAWFTPPAVMDTFVPVGTDTSTWAPIRVGGTTTLSSLAYFRNPLHAFFESMSGWTGSGLTMAIHEPSLPRAVQWWRSFIQYVGGVGVIVLTVSILSRPGSGSYALYQSEAREEKIHPSVVSTVRTVWKLVVGYTVLSFALLFGAILASDSEYAESLPLWEVAWQALNHAMTGLTTGGFSVTDNSIATYNSPLVETVLLPIMILGAIAFPVHYVVLHDRQVRELVTDLQTRWLFILLTVGVVGLSVQNAWSVPATTEAFATQSFLPVSVPMLNAAQLDAVRDSTFQWVSALSCTGFQSAPIGRWLAGGKVLVAGAMVLGGAAGSTVGGIKIIRGYTIVRGIIWQFSRVFLPTNAVITARIGNRTLDRESMEREFSEAAIVTLLWLIILIISSVVLTNVAGPAFGYADALFEVASAQGNVGLSSGITGPSMPAIAEGMFVLNMWVGRLEIIPILVFIRAGLYGLDP	failed
MSRRYWQLDVFAERPLTGNGLAVFDDASALDDAAMQAWTRELRQFESIFLLPGDDPRAFRARIFTLEEELPFAGHPLLGAAALLHHLRGGDNEQHWTLHLASKSVALRSVRAGSGFYAEMDQGRAEFGATPDAGTCRWFAEAFSLSANDLSGHPPRVVSTGLPYLLLPVTAEALGRARQVNDLQEALDKLGAAFVYLLDVDGREGRTWDNLGLVEDVATGSAAGPVAAYLVEYGLAARGEPFVLHQGRFLERPSRLDVQVATDGSVRVGGHVQLLARAELLTSA	not failed
MSRSQLTILTNICLIEDLETQRVVMQYRAPENNRWSGYAFPGGHVENDEAFAESVIREIYEETGLTIQNPQLVGIKNWPLDTGGRYIVICYKATEFSGTLQSSEEGEVSWVQKDQIPNLNLAYDMLPLMEMMEAPDKSEFFYPRRTEDDWEKKIF	not failed
